# Test results taken from US20260191905A1 (MODERNATX, published 2026).
# B1: VH20 (VHH)
# VHH: EVQLVESGGGLVQPGGSLRLSCAASGFTFSSYAMSWVRQAPGKEPEWISSISGSGSSTYYADSLKGRFTISRDNSKNTLYLQMNSLRAEDTAVYYCSKDPRFGEPPFDYWGQGTTVTVSS
# notes: also called VHH20
# B2: anti-GPC3 VHH-His tagged domain VHH5 (VHH)
# VHH: EVQLVESGGGLVQPGGSLRLSCAASGFTFSSYAMSWVRQAPGKEPEWVSSISGGGSSAYYADSLKGRFTISRDNSKNTLYLQMNSLRAEDTAVYYCSRDPRFGEPPFDYWGQGTTVTVSS
# notes: Produced from a mammalian expression vector as a His fusion; not shown: His tag
# B3: anti-GPC3 VHH-His tagged domain VHH13 (VHH)
# VHH: EVQLVESGGGLVQPGGSLRLSCAASGFTFSSYAMSWVRQAPGKEPEWVSSISGGGGSTYYADSLKGRFTISRDNSKNTLYLQMNRLRAEDTAVYYCARDPMFGERPFDYWGQGTLVTVSS
# notes: as for B2
# B4: VH24 (VHH)
# VHH: EVQLVESGGGLVQPGGSLRLSCAASGFTFSSYAMSWVRQAPGKEPEWVSSISGGGTSTYYADSLEGRFTISRDNSKNTLYLQMNSLRAEDTAVYYCSKDPRFGEPPFDYWGQGTLVTVSS
# notes: also called VHH24
# B5: VH25 (VHH)
# VHH: EVQLVESGGGLVQPGGSLRLSCAASGFTFSSYAMSWVRQAPGKESEWVSSISGSGSSTYYADSLKGRFTISRDNSKNTLYLQMNSLRAEDTAVYYCSKDPRFGEPPFDYWGQGTLVTVSS
# notes: also called VHH25
# B6: VH30 (VHH)
# VHH: QVQLVESGGGLVQPGGSLRLSCAASGFIFSSYAMSWVRQAPGKEPEWVSSISGGGSSTYYADSLEGRFTISRDNSKNTLYLQMNSLRAEDTAVYYCSKDPRFFEPPFDYWGQGTLVTVSS
# notes: also called VHH30
# B7: VH22 (VHH)
# VHH: EVQLVESGGGLVQPGGSLRLSCAASGFTFSSYAMSWVRQAPGKEPEWVSSISGGGSSTYYADSLKGRFTISRDNSKNTLYLQMDSLRAEDTAVYYCSRDPRFGEPPFDYWGQGTLVTVSS
# notes: also called VHH22
# B8: VH34 (VHH)
# VHH: QVQLVESGGGLVRPGGSLRLSCAASGFTFSSYAMSWVRQAPGKEPEWVSSISGGGSSTYYADSLKGRFTISRDNSKNTLYLQMNSLRAEDTAVYYCSRDPRFGEPPFDYWGQGTLVTVSS
# notes: also called VHH34
# B9: anti-GPC3 VHH-His tagged domain VHH6 (VHH)
# VHH: QVQLVESGGGLVQPGGSLRLSCAASGFIFSSYAMSWVRQAPGKEPEWVSSISGGGSSTYYADSLEGRFTISRDNSKNTLYLQMNSLRAEDTAVYYCSKDPRFGEPPFDYWGQGTTVTVSS
# notes: as for B2
# B10: anti-GPC3 VHH-His tagged domain VHH2 (VHH)
# VHH: QVQLVESGGGLVQPGGSLRLSCAASGFTFSNYLMHWVRQAPGKGLEWLSNINSDGSSTYYADSVKGRFTISRDNSKNTLYLQMNSLRAEDTAVYYCTVGAFDYWGQVTTGTVSS
# notes: as for B2
# Legend:
# [1] = biological target: T1, human GPC3 recombinant protein (human, UniProt P51654 25-559); test: SPR (Biacore) off-rate screen, periplasmic extract over human GPC3 on CM5; R0 45.4
# T1 construct: also called huGPC3; Human GPC3 protein
# T1 sequence (P51654 25-559 limits assumed): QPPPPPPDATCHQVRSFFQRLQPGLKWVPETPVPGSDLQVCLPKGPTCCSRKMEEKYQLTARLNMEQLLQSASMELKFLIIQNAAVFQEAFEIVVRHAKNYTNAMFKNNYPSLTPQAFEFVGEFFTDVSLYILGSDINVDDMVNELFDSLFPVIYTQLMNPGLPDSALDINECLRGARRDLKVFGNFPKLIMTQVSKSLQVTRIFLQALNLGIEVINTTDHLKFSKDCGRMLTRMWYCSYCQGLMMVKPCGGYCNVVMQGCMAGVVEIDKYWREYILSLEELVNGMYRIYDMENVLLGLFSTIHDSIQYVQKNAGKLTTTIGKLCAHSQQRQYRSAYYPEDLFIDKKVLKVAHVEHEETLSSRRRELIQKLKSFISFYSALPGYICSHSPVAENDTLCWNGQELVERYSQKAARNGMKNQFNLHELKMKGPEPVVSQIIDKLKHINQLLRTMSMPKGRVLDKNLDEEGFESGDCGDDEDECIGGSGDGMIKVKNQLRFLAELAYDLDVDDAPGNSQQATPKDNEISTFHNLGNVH
# Protocol: (§1) Human GPC3 protein in acetate buffer, pH 5.0, was immobilized in a sensor chip CM5 (GE Healthcare; Cat. Nr. BR-1005-30; Lot. Nr.10245232) and successful immobilization was confirmed by using a commercially available human GPC3 antibody (R&D cat. nr. MAB2119) and the anti-GPC3-VHH-Fc (both at 10 μg/mL). Periplasmic extracts from the MP were diluted in Biacore Buffer (0.01 M HEPES pH 7.4, 0.15 M NaCl, 3 mM EDTA, 0.05% P20) and injected over 2 minutes at 30 μL/min. 10 μl of 10 mM NaOH/1M NaCl were injected between samples and off-rates were measured over 5 minutes. Off-rate ([…]) were calculated using BIACORE software 1:1 interaction Langmuir binding model.
# [2] = biological target: T1, human GPC3 recombinant protein; test: SPR (Biacore), summary table; Chi2 0.59; Profile 'Good'; FIG. 18 prints 5.24E-09
# Protocol: (§2) Affinities of the 19 VHH-His tagged domains were then determined by BiaCore assay. Human GPC3 protein (Sino biological cat. nr. 10088-H08H-500) was immobilized on CM5 sensor chip (GE Healthcare) as antigen. Purified VHH-His tagged domains were diluted in BiaCore buffer (0.01 M HEPES pH 7.4, 0.15 M NaCl, 3 mM EDTA, 0.05% P20) to 500 nM and injected over 2 minutes at […] followed by a half dilution series to 7.8 nM. 10 μl of 10 mM NaOH/1M NaCl were injected between samples and then off-rate wash was 5 minutes.
# [3] = biological target: T2, human GPC3 on HepG2 cells (human, UniProt P51654 25-554); test: FACS, phage-displayed clone on HepG2, well D3; same clone on A-431 (no GPC3): 1.16%
# T2 construct: whole, on cells
# T2 sequence (P51654 25-554 limits assumed): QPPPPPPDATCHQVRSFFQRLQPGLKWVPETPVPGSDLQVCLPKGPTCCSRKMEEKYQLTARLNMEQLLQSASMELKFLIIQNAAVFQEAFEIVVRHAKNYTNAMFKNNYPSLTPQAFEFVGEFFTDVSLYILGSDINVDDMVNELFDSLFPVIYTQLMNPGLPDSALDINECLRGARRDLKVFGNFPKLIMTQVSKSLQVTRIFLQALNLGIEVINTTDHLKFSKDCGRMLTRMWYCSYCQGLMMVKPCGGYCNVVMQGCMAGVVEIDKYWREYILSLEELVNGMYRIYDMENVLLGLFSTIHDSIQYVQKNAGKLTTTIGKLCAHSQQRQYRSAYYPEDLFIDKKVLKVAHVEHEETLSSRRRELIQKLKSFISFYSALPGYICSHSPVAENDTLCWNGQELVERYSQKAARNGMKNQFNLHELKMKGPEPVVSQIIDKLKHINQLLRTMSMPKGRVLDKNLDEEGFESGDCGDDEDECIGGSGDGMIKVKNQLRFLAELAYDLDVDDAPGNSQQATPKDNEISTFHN
# [4] = biological target: T2, human GPC3 on HepG2 cells; test: FACS, periplasmic extract 1:5 + anti-c-myc + GAM-APC on HepG2, well D3; same on A-431: 802.83
# [5] = biological target: T2, human GPC3 on HepG2 cells; test: FACS, phage-displayed clone on HepG2, well D3; same clone on A-431 (no GPC3): 1102.21
# [6] = biological target: T1, human GPC3 recombinant protein; test: SPR (Biacore), VHH-His over human GPC3 on CM5; fit 197.5 - 26.0 nM; Rmax 14.1 RU; Chi2 0.59
# Protocol: as §2
# [7] = biological target: T1, human GPC3 recombinant protein; test: SPR (Biacore) off-rate screen, periplasmic extract over human GPC3 on CM5; R0 47.2
# Protocol: as §1
# [8] = biological target: T2, human GPC3 on HepG2 cells; test: FACS, periplasmic extract 1:5 + anti-c-myc + GAM-APC on HepG2, well D3; same on A-431: 0.36%
# [9] = biological target: T1, human GPC3 recombinant protein; test: SPR (Biacore), summary table; Chi2 0.365; Profile 'Medium'; FIG. 18 prints 3.82E-09
# [10] = biological target: T1, human GPC3 recombinant protein; test: SPR (Biacore), VHH-His over human GPC3 on CM5; fit 250 - 7.8 nM; Rmax 11.3 RU; Chi2 0.365
# Protocol: as §2
# [11] = biological target: T2, human GPC3 on HepG2 cells; test: FACS, periplasmic extract 1:5 + anti-c-myc + GAM-APC on HepG2, well A2; same on A-431: 0.21%
# [12] = biological target: T2, human GPC3 on HepG2 cells; test: FACS, phage-displayed clone on HepG2, well A2; same clone on A-431 (no GPC3): 0.72%
# [13] = biological target: T2, human GPC3 on HepG2 cells; test: FACS, phage-displayed clone on HepG2, well A2; same clone on A-431 (no GPC3): 1042.47
# [14] = biological target: T2, human GPC3 on HepG2 cells; test: FACS, periplasmic extract 1:5 + anti-c-myc + GAM-APC on HepG2, well A2; same on A-431: 753.37
# [15] = biological target: T1, human GPC3 recombinant protein; test: SPR (Biacore) off-rate screen, periplasmic extract over human GPC3 on CM5; R0 71.6
# Protocol: as §1
# [16] = biological target: T1, human GPC3 recombinant protein; test: SPR (Biacore) off-rate screen, periplasmic extract over human GPC3 on CM5; R0 24.6
# Protocol: as §1
# [17] = biological target: T1, human GPC3 recombinant protein; test: SPR (Biacore) off-rate screen, periplasmic extract over human GPC3 on CM5; R0 30.5
# Protocol: as §1
# [18] = biological target: T1, human GPC3 recombinant protein; test: SPR (Biacore) off-rate screen, periplasmic extract over human GPC3 on CM5; R0 6.06; asterisk not explained on the sheet
# Protocol: as §1
# [19] = biological target: T1, human GPC3 recombinant protein; test: SPR (Biacore) off-rate screen, periplasmic extract over human GPC3 on CM5; R0 56.5
# Protocol: as §1
# [20] = biological target: T1, human GPC3 recombinant protein; test: SPR (Biacore) off-rate screen, periplasmic extract over human GPC3 on CM5; R0 41.0
# Protocol: as §1
# [21] = biological target: T1, human GPC3 recombinant protein; test: SPR (Biacore) off-rate screen, periplasmic extract over human GPC3 on CM5; R0 31.6
# Protocol: as §1
# [22] = biological target: T2, human GPC3 on HepG2 cells; test: FACS, periplasmic extract 1:5 + anti-c-myc + GAM-APC on HepG2, well C3; same on A-431: 0.12%
# [23] = biological target: T2, human GPC3 on HepG2 cells; test: FACS, phage-displayed clone on HepG2, well C3; same clone on A-431 (no GPC3): 1100.37
# [24] = biological target: T2, human GPC3 on HepG2 cells; test: FACS, phage-displayed clone on HepG2, well C3; same clone on A-431 (no GPC3): 1.31%
# [25] = biological target: T2, human GPC3 on HepG2 cells; test: FACS, periplasmic extract 1:5 + anti-c-myc + GAM-APC on HepG2, well C3; same on A-431: 697.44
# [26] = biological target: T1, human GPC3 recombinant protein; test: SPR (Biacore), summary table; Chi2 0.43; Profile 'Good'; FIG. 18 prints 6.64E-09
# Protocol: as §2
# [27] = biological target: T1, human GPC3 recombinant protein; test: SPR (Biacore), VHH-His over human GPC3 on CM5; fit 250 - 7.8 nM; Rmax 9.47 RU; Chi2 0.43
# Protocol: as §2
# [28] = biological target: T1, human GPC3 recombinant protein; test: SPR (Biacore), VHH-His over human GPC3 on CM5; fit 87.8 - 17.34 nM; Rmax 38.9 RU; Chi2 0.636
# Protocol: as §2
# [29] = biological target: T1, human GPC3 recombinant protein; test: SPR (Biacore) off-rate screen, periplasmic extract over human GPC3 on CM5; R0 107.0
# Protocol: as §1
# [30] = biological target: T1, human GPC3 recombinant protein; test: SPR (Biacore), summary table; Chi2 0.636; Profile 'Very good'
binder,measurement,setting,value
B1,koff,[1],0.00249 s⁻¹
B2,Kd,[2],3.68 nM
same,% of Binding,[3],74.3%
same,Mean FL4-A,[4],812
same,Mean FL2-A,[5],57900
same,Ka,[6],1.91e+08 M⁻¹
same,Kd,[6],5.24 nM
same,koff,[6],0.00253 s⁻¹
same,kon,[6],484000 M⁻¹ s⁻¹
same,koff,[7],0.00366 s⁻¹
same,% of Binding,[8],0.5%
B3,Kd,[9],3.57 nM
same,Ka,[10],2.62e+08 M⁻¹
same,Kd,[10],3.82 nM
same,koff,[10],0.00538 s⁻¹
same,kon,[10],1.41e+06 M⁻¹ s⁻¹
same,% of Binding,[11],0.3%
same,% of Binding,[12],61.4%
same,Mean FL2-A,[13],26600
same,Mean FL4-A,[14],752
same,koff,[15],0.00607 s⁻¹
B4,koff,[16],0.00367 s⁻¹
B5,koff,[17],0.00378 s⁻¹
B6,koff,[18],0.00983 s⁻¹
B7,koff,[19],0.00282 s⁻¹
B8,koff,[20],0.00507 s⁻¹
B9,koff,[21],0.00221 s⁻¹
same,% of Binding,[22],0.64%
same,Mean FL2-A,[23],43500
same,% of Binding,[24],68.7%
same,Mean FL4-A,[25],915
same,Kd,[26],4.34 nM
same,Ka,[27],1.51e+08 M⁻¹
same,Kd,[27],6.64 nM
same,koff,[27],0.00197 s⁻¹
same,kon,[27],296000 M⁻¹ s⁻¹
B10,Ka,[28],3.66e+08 M⁻¹
same,Kd,[28],2.73 nM
same,koff,[28],0.000967 s⁻¹
same,kon,[28],354000 M⁻¹ s⁻¹
same,koff,[29],0.00184 s⁻¹
same,Kd,[30],2.73 nM
